Test results published in article PMC10359603.

What was measured:
[1] = target: 6H-MBP-FseA (Mesorhizobium japonicum R7A); experiment: SEC; HiLoad 16/600 Superdex 200; 50 mM Na2HPO4/NaH2PO4 pH 6.35, 10% glycerol, 500 mM NaCl; apparent mass from the elution volume
[2] = target: QseM (wild type, bacterial two-hybrid); experiment: bacterial two-hybrid
[3] = tested on: 6H-MBP-FseA (Mesorhizobium japonicum R7A (ICEMlSymR7A)?); experiment: EMSA; conditions: dimer concentration 4-130 nM; Hill slope fit, n=3; FseA EMSA: 10 mM Na phosphate pH 6.35, 220 mM NaCl, 6% glycerol, 1 mM DTT, 0.01 ug/ul poly(dI.dC), 0.1 ug/ul herring sperm DNA, 0.1-0.19 ug/ul BSA, 5 nM probe …
[4] = target: FseA_(1–55) (Mesorhizobium japonicum R7A); experiment: two-hybrid; Bacteriomatch II bacterial two-hybrid in E. coli; growth on selective medium with 5 mM 3-amino-1,2,4-triazole; strength as CFU/ml on selective against non-selective medium
[5] = target: FseA (wild type, bacterial two-hybrid); experiment: bacterial two-hybrid

Substance: 6H-MBP-FseA (natural protein)
- stoichiometry N [1]: 2

Substance: FseA (wild type, bacterial two-hybrid) D210A
- percent of parent (% of wild-type FseA) [2]: > 90

Substance: FseA (wild type, bacterial two-hybrid) G214
- percent of parent (% of wild-type FseA) [2]: > 90

Substance: FseA (wild type, bacterial two-hybrid) R36A
- percent of parent (% of wild-type FseA) [2]: > 90

Substance: FseA (wild type, bacterial two-hybrid) R37A
- percent of parent (% of wild-type FseA) [2]: < 10

Substance: FseA (wild type, bacterial two-hybrid) R219A
- percent of parent (% of wild-type FseA) [2]: > 90

Substance: FseA (wild type, bacterial two-hybrid) W32A
- percent of parent (% of wild-type FseA) [2]: > 90

Substance: PrdfS FseA-box probe
- Kd [3]: 30 nM

Substance: QseM (wild type, bacterial two-hybrid) (natural protein)
- interaction strength relative to wild-type FseA [4]: 40%

Substance: QseM (wild type, bacterial two-hybrid) D31A
- percent of parent (% of wild-type QseM) [5]: < 10

Substance: QseM (wild type, bacterial two-hybrid) E56A
- percent of parent (% of wild-type QseM) [5]: > 90

Substance: QseM (wild type, bacterial two-hybrid) H22A
- percent of parent (% of wild-type QseM) [5]: > 90

Substance: QseM (wild type, bacterial two-hybrid) L29A
- percent of parent (% of wild-type QseM) [5]: < 10

Substance: QseM (wild type, bacterial two-hybrid) R28A
- percent of parent (% of wild-type QseM) [5]: > 90

Substance: QseM (wild type, bacterial two-hybrid) R57A
- percent of parent (% of wild-type QseM) [5]: > 90

Substance: QseM (wild type, bacterial two-hybrid) R68A
- percent of parent (% of wild-type QseM) [5]: < 10

Substance: QseM (wild type, bacterial two-hybrid) W71A
- percent of parent (% of wild-type QseM) [5]: < 10
